This note sets out measurements from PMC10922565 (Cell chemical biology, 2023).

Common to all, as to assay: flow cytometry on cells
Experiment [1] deals with mouse TrkB expressed on REN cells (Mus musculus, UniProt P15209).
Experiment [2] deals with mouse TfR-1 expressed on REN cells (Mus musculus, UniProt Q62351).
The target of experiment [3] is mouse CD98hc expressed on REN cells (Mus musculus, UniProt P10852-2).

Sequence of mouse TfR-1 expressed on REN cells (Q62351 whole entry): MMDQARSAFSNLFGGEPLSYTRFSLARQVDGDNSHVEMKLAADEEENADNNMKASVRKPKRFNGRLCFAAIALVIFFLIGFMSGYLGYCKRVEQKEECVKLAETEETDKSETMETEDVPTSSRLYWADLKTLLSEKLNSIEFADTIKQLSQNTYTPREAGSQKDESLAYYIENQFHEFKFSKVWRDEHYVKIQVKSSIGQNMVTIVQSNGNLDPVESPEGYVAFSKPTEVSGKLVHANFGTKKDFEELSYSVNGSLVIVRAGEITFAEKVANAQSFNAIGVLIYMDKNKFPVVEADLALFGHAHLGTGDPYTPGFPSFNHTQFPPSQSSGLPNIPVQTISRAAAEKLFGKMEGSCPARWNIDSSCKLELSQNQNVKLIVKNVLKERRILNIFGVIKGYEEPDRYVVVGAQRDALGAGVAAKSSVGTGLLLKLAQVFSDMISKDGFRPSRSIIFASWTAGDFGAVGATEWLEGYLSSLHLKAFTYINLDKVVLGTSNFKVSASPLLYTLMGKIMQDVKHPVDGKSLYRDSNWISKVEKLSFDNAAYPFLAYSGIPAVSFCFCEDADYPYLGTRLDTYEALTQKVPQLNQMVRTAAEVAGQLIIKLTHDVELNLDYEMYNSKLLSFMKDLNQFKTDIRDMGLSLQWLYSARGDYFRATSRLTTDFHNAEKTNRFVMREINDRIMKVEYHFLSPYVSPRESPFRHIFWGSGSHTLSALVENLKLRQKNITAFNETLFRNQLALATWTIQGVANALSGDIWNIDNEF
Sequence of mouse TrkB expressed on REN cells (P15209 32-821): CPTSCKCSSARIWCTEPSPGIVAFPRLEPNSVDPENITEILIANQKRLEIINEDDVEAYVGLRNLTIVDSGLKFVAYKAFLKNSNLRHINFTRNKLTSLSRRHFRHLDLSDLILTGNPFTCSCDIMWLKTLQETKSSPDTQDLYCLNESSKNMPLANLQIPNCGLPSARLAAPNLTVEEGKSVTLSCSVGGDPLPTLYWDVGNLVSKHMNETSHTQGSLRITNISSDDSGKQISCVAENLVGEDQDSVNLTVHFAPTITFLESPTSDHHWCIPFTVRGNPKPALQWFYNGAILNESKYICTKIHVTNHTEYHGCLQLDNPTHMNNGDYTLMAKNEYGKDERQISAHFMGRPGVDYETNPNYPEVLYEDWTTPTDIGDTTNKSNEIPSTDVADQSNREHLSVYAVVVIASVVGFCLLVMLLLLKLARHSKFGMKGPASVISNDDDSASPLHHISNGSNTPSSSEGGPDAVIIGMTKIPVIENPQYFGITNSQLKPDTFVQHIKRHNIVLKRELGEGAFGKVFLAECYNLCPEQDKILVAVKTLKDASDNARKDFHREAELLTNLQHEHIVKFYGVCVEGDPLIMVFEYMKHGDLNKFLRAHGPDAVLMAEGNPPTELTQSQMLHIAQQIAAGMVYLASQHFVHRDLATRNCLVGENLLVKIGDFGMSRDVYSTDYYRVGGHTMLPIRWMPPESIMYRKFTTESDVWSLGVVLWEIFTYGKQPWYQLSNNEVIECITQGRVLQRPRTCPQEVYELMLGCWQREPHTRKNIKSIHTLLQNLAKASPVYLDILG

B1: 29D7 (TrkB-IgG) (antibody, V domains shown)
VH: EVQLVESGGGLVQPGGSLRLSCAASGYSFTAYFMNWVRQAPGKGLEWVARINPNNGDTFYTQKFKGRFTISRDNAKNSLYLQMNSLRAEDTAVYYCARRDYFGAMDYWGQGTLVTVSS
VL: DIQMTQSPSSLSASVGDRVTITCRASQTISNNLHWYQQKPGKAPKLLIKSASLAISGVPSRFSGSGSGTDFTLTISSLQPEDFATYYCQQSNSWPNTFGGGTKVEIK
For B1, in experiment [1], the binding result is “binds”.

B2: TfR-1 IgG (clone 8D3) (antibody, V domains shown)
VH: EVQLVESGGGLVQPGNSLTLSCVASGFTFSNYGMHWIRQAPKKGLEWIAMIYYDSSKMNYADTVKGRFTISRDNSKNTLYLEMNSLRSEDTAMYYCAVPTSHYVVDVWGQGVSVTVSS
VL: DIQMTQSPASLSASLEEIVTITCQASQDIGNWLAWYQQKPGKSPQLLIYGATSLADGVPSRFSGSRSGTQFSLKISRVQVEDIGIYYCLQAYNTPWTFGGGTKLELK
Turning to B2, in experiment [2], a half-maximal response (EC50) required 3.1 nM. This lies in the single-digit nanomolar range.

B3: CD98hc IgG (antibody, V domains shown)
VH: EVQLVESGGGLVQPGRSLKLSCAASGFTFSDYYMAWVRQAPKKGLEWVASISYEGSSIYYGDSVKGRVTISRDNAKSTLYLQMNSLRSEDTATYYCARRGYYGYKPFDYWGQGVMVTVSS
VL: DIQMTQSPASLSASVGETVTIECRASEDIYNGLAWYQQKPGKSPQLLIYNIDNLHTGVPSRFSGSGSGTQYSLKINSLQSEDVASYFCQQYYTYAYTFGAGTKLELK
In the case of B3, the EC50 in experiment [3] amounted to 1.9 nM. This counts as single-digit nanomolar.
